Experimental data as given in patent publication US20250002610A1 (Genmab, published 2025).

T1: human DR4 (Death Receptor 4), cell surface expressed on human tumor cell lines (human, UniProt O00220 24-468)
T1 construct: also called TNFRSF10A; TRAIL-R1
T1 sequence: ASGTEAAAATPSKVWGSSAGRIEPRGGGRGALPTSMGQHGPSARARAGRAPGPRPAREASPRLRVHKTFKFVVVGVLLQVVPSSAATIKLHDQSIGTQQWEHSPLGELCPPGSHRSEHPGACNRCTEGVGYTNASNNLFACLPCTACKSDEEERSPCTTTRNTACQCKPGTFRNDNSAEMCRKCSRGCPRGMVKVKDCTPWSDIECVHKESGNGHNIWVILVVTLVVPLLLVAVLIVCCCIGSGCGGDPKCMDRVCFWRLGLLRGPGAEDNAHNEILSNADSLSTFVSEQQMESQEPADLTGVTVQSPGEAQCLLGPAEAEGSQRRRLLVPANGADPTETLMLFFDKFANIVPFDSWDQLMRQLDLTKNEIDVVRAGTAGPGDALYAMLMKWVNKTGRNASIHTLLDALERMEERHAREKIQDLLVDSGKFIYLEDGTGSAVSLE

B1: IgG1-DR4-chCTB007-FEAR (antibody, V domains shown)
VH: EVQLQQSGAELVKPGASVKLSCTASGFNIKDTYMHWVKQRPEQGLEWIGRIDPANGNTKYDPKFQGKATITADTSSNTAYLQLSSLTSEDTAVYYCAYYYVSNAWFTYWGQGTLVTVSA
VL: DIQMTQSPASLSVSVGETVTITCRASENIYSNLEWYQQKQGKSPQLLVYAATNLADGVPSRFSGSGSGTQYSLKINSLQSEDFGSYYCQHFWGTWTFGGGTKLEIKR
notes: Prior art DR4 clone (US20090136503A1)
B2: BisG1-b12-FEAL/DR4-T1014A04-FEAR (bispecific antibody, human IgG1, kappa, lambda)
heavy 1: QVQLVQSGAEVKKPGASVKVSCQASGYRFSNFVIHWVRQAPGQRFEWMGWINPYNGNKEFSAKFQDRVTFTADTSANTAYMELRSLRSADTAVYYCARVGPYSWDDSPQDNYYMDVWGKGTTVIVSSASTKGPSVFPLAPSSKSTSGGTAALGCLVKDYFPEPVTVSWNSGALTSGVHTFPAVLQSSGLYSLSSVVTVPSSSLGTQTYICNVNHKPSNTKVDKRVEPKSCDKTHTCPPCPAPEFEGGPSVFLFPPKPKDTLMISRTPEVTCVVVAVSHEDPEVKFNWYVDGVEVHNAKTKPREEQYNSTYRVVSVLTVLHQDWLNGKEYKCKVSNKALPAPIEKTISKAKGQPREPQVYTLPPSREEMTKNQVSLTCLVKGFYPSDIAVEWESNGQPENNYKTTPPVLDSDGSFLLYSKLTVDKSRWQQGNVFSCSVMHEALHNHYTQKSLSLSPG
light 1: EIVLTQSPGTLSLSPGERATFSCRSSHSIRSRRVAWYQHKPGQAPRLVIHGVSNRASGISDRFSGSGSGTDFTLTITRVEPEDFALYYCQVYGASSYTFGQGTKLERKRTVAAPSVFIFPPSDEQLKSGTASVVCLLNNFYPREAKVQWKVDNALQSGNSQESVTEQDSKDSTYSLSSTLTLSKADYEKHKVYACEVTHQGLSSPVTKSFNRGEC
heavy 2: EVQLVQSGADVKRPGASVKVSCKISGDSFNAYFIHWVRQAPGQGLEWMGWFNPDSGTADSAQKFHGRVTMTRDTSSSTAFLELSRLRSDDTAVYYCVRQHRGNTFAPWGRGTMVTVSSASTKGPSVFPLAPSSKSTSGGTAALGCLVKDYFPEPVTVSWNSGALTSGVHTFPAVLQSSGLYSLSSVVTVPSSSLGTQTYICNVNHKPSNTKVDKRVEPKSCDKTHTCPPCPAPEFEGGPSVFLFPPKPKDTLMISRTPEVTCVVVAVSHEDPEVKFNWYVDGVEVHNAKTKPREEQYNSTYRVVSVLTVLHQDWLNGKEYKCKVSNKALPAPIEKTISKAKGQPREPQVYTLPPSREEMTKNQVSLTCLVKGFYPSDIAVEWESNGQPENNYKTTPPVLDSDGSFFLYSRLTVDKSRWQQGNVFSCSVMHEALHNHYTQKSLSLSPG
light 2: QSVLTQPPSASGSPGQSVTISCTGTTSDVGGYNYVSWYQQHPGKAPKLMIYGVNQRPSGVPDRFSGSKSGNTASLTVSGLQAEDEADYYCSSYAGSNNWVFGGGTKLTVLGQPKAAPSVTLFPPSSEELQANKATLVCLISDFYPGAVTVAWKADSSPVKAGVETTTPSKQSNNKYAASSYLSLTPEQWKSHRSYSCQVTHEGSTVEKTVAPTECS
notes: Fab-arm exchange of IgG1-b12-FEAL and IgG1-DR4-T1014A04-FEAR

What was measured:
[1] = biological target: T1, human DR4 (Death Receptor 4), cell …; experiment: flow cytometry, MDA-MB-231 cells, N = 1
[2] = biological target: T1, human DR4 (Death Receptor 4), cell …; experiment: flow cytometry, MDA-MB-231 cells, N = 2
[3] = biological target: T1, human DR4 (Death Receptor 4), cell …; experiment: flow cytometry, MDA-MB-231 cells, average ± SEM
[4] = biological target: T1, human DR4 (Death Receptor 4), cell …; experiment: flow cytometry on OPM-2 cells (endogenous DR4), gMFI PE
Protocol: Immunol. […] Human lung fibroblasts and CAFs (50,000 cells/well) were seeded in 96-Well round bottom plates (Greiner Bio-one, Cat #650101). Antibody dilutions were prepared using fluorescence-activated cell sorting (FACS) buffer, consisting of phosphate buffer saline (PBS, Lonza, Cat #BE17-517Q)+1% Bovine Serum Albumin (BSA, Roche, Cat #10735086001)+0.02% Sodium Azide (Bio-World, Cat #41920044-3). Plates were centrifuged, supernatant was removed, cells were resuspended in 50 μL of human Fc Block (BD, Cat #564220, diluted 1:100 in FACS buffer) and 50 μL of viability stain TO-PRO-3 Iodide (Thermo Fisher, Cat #T3605, diluted 1: 25,000 in FACS buffer), and incubated for 15 min at 4° C. Plates were washed three times with FACS buffer. […] Antibody binding to viable cells (TO-PRO-3 negative) was analyzed by flow cytometry on a FACSCelesta™ (BD biosciences) and data were processed using FlowJo_v10.8.1 (FlowJo LLC). Geomean fluorescence intensity, gMFI, was determined and visualized using GraphPad Prism. Binding curves were analyzed using nonlinear regression analysis. […]
Binding of DR4-specific antibodies BisG1-b12-FEAL/DR4-T1014A04-FEAR, BisG1-b12-FEAL/DR4-chCTB007-FEAR, IgG1-DR4-chCTB007-FEAR and IgG1-DR4-T1014A04-FEAR to cell surface expressed human DR4 was analyzed by flow cytometry using the human cancer cell line OPM-2 (DSMZ, Cat #ACC 50), which endogenously expresses DR4.

[5] = biological target: T1, human DR4 (Death Receptor 4), cell …; experiment: flow cytometry, MDA-MB-231 cells, N = 1; MDA-MB-231 cells, up to 90 µg/mL, N = 1
[6] = biological target: T1, human DR4 (Death Receptor 4), cell …; experiment: flow cytometry, MDA-MB-231 cells, N = 2; MDA-MB-231 cells, up to 90 µg/mL, N = 2
[7] = biological target: T1, human DR4 (Death Receptor 4), cell …; experiment: flow cytometry, MDA-MB-231 cells, average ± SEM; MDA-MB-231 cells, up to 90 µg/mL, average of N = 2

| Binder | EC50 [1] [mg/L] | Max MFI (at 90 µg/mL) [1] [MFI] | EC50 [2] [mg/L] | Max MFI (at 90 µg/mL) [2] [MFI] | EC50 [3] [mg/L] | Max MFI (at 90 µg/mL) [3] [MFI] | EC50 (read off the curve) [4] [mg/L] | EC50 [5] [mg/L] | EC50 [6] [mg/L] | EC50 [7] [mg/L] |
| --- | --- | --- | --- | --- | --- | --- | --- | --- | --- | --- |
| B1 | 0.04 | 3750 | 0.08 | 3480 | 0.06 | 3620 | ~0.05 | – | – | – |
| B2 | – | – | – | – | – | – | – | 4.33 | 6.36 | 5.35 |
